What was measured:
[1] = biological target: T1, FcγRIIa R (FcγRIIa, allotype R, Arg at position 131), extracellular domain with C-terminal His tag (human, UniProt P12318 34-217); assay: Biacore SPR; He/Con_2aR divided by He/Con_2b (FcγRIIb)
T1 construct: extracellular domain; soluble receptor used as Biacore analyte; also called 2aR; FcgRIIa R
T1 sequence (looked up): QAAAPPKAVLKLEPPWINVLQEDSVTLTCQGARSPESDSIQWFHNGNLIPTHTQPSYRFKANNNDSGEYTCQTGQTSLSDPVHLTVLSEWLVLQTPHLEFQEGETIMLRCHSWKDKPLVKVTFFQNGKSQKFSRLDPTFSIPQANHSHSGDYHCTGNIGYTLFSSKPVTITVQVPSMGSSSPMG
Protocol: The heterodimerized antibodies He Abs in which one of the H chains was introduced with an alteration were assayed for their binding activities to each activating FcγR and inhibitory FcγR according to the method described in Example 4. […] The activating FcγRs in FIGS. 26, 27, 28, and 29 are FcγRIa, FcγRIIa (R), FcγRIIa (H), and FcγRIIIa, respectively.
Analysis of interaction between objective antibody and the FcγR was carried out using Biacore T100 (GE Healthcare). HBS-EP+ (GE Healthcare) was used as the running buffer, and the measurement temperature was set to 25° C. Chips produced by immobilizing the antigen peptide by the amine coupling method to a Series S Sencor Chip CM5 (GE Healthcare), or alternatively, chips produced by allowing preliminarily biotinylated antigen peptides to interact with and immobilize onto a Series S Sensor Chip SA (certified) (GE Healthcare) were used. Antibodies of interest were captured onto an antigen peptide-immobilized chip, and allowed to interact to each FcγR diluted with running buffer. To regenerate and repeatedly use the chip, the antibodies captured on the chip were washed off by reacting 10 mM glycine-HCl, pH 1.5.

[2] = biological target: T2, FcγRIIb, extracellular domain with C-terminal His tag (human, UniProt P31994 43-217); assay: Biacore SPR; binding relative to GpH7-A5/GpH7-B3/GpL16-k0 (=100)
T2 construct: extracellular domain; soluble receptor used as Biacore analyte; also called 2b; FcgRIIb
T2 sequence (looked up): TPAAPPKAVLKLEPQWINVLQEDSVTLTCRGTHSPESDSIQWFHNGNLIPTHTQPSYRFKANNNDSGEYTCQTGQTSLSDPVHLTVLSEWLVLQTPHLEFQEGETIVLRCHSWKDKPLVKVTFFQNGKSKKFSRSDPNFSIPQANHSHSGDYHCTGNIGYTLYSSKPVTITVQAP

[3] = biological target: T1, FcγRIIa R (FcγRIIa, allotype R, Arg at …); assay: as above

Binder | IIaR/IIb (He_2aR/2b) [1] | He/Con_2b (IIb binding) [2] | He/Con_2aR (IIaR binding) [3]
heterodimerized antibody GpH7-A5/GpH7-B3 variant P271_01G/GpL16-k0 (antibody, human IgG1, kappa, He Ab: anti-glypican-3 IgG1, alteration in one H chain only; also called He Ab) heavy 1: not shown heavy 2: not shown light: DIVMTQSPLSLPVTPGEPASISCQASESLVHSNRNTYLHWYLQKPGQSPQLLIYKVSNRFSGVPDRFSGSGSGTDFTLKISRVEAEDVGVYYCSQNTHVPPTFGQGTKVEIERTVAAPSVFIFPPSDEQLKSGTASVVCLLNNFYPREAKVQWKVDNALQSGNSQESVTEQDSKDSTYSLSSTLTLSKADYEKHKVYACEVTHQGLSSPVTKSFNRGEC | 0.75 | 193 % of control | 144 % of control
heterodimerized antibody GpH7-A5/GpH7-B3 variant S267_07I/GpL16-k0 (antibody, human IgG1, kappa, He Ab: anti-glypican-3 IgG1, alteration in one H chain only; also called He Ab) heavy 1: not shown heavy 2: not shown light: DIVMTQSPLSLPVTPGEPASISCQASESLVHSNRNTYLHWYLQKPGQSPQLLIYKVSNRFSGVPDRFSGSGSGTDFTLKISRVEAEDVGVYYCSQNTHVPPTFGQGTKVEIERTVAAPSVFIFPPSDEQLKSGTASVVCLLNNFYPREAKVQWKVDNALQSGNSQESVTEQDSKDSTYSLSSTLTLSKADYEKHKVYACEVTHQGLSSPVTKSFNRGEC | 0.58 | 192 % of control | 111 % of control
heterodimerized antibody GpH7-A5/GpH7-B3 variant S239_10E/GpL16-k0 (antibody, human IgG1, kappa, He Ab: anti-glypican-3 IgG1, alteration in one H chain only; also called He Ab) heavy 1: not shown heavy 2: not shown light: DIVMTQSPLSLPVTPGEPASISCQASESLVHSNRNTYLHWYLQKPGQSPQLLIYKVSNRFSGVPDRFSGSGSGTDFTLKISRVEAEDVGVYYCSQNTHVPPTFGQGTKVEIERTVAAPSVFIFPPSDEQLKSGTASVVCLLNNFYPREAKVQWKVDNALQSGNSQESVTEQDSKDSTYSLSSTLTLSKADYEKHKVYACEVTHQGLSSPVTKSFNRGEC | 0.75 | 181 % of control | 135 % of control
heterodimerized antibody GpH7-A5/GpH7-B3 variant S267_02A/GpL16-k0 (antibody, human IgG1, kappa, He Ab: anti-glypican-3 IgG1, alteration in one H chain only; also called He Ab) heavy 1: not shown heavy 2: not shown light: DIVMTQSPLSLPVTPGEPASISCQASESLVHSNRNTYLHWYLQKPGQSPQLLIYKVSNRFSGVPDRFSGSGSGTDFTLKISRVEAEDVGVYYCSQNTHVPPTFGQGTKVEIERTVAAPSVFIFPPSDEQLKSGTASVVCLLNNFYPREAKVQWKVDNALQSGNSQESVTEQDSKDSTYSLSSTLTLSKADYEKHKVYACEVTHQGLSSPVTKSFNRGEC | 0.64 | 243 % of control | 155 % of control
heterodimerized antibody GpH7-A5/GpH7-B3 variant V266_04F/GpL16-k0 (antibody, human IgG1, kappa, He Ab: anti-glypican-3 IgG1, alteration in one H chain only; also called He Ab) heavy 1: not shown heavy 2: not shown light: DIVMTQSPLSLPVTPGEPASISCQASESLVHSNRNTYLHWYLQKPGQSPQLLIYKVSNRFSGVPDRFSGSGSGTDFTLKISRVEAEDVGVYYCSQNTHVPPTFGQGTKVEIERTVAAPSVFIFPPSDEQLKSGTASVVCLLNNFYPREAKVQWKVDNALQSGNSQESVTEQDSKDSTYSLSSTLTLSKADYEKHKVYACEVTHQGLSSPVTKSFNRGEC | 0.77 | 57.6 % of control | 44.4 % of control
heterodimerized antibody GpH7-A5/GpH7-B3 variant V266_06M/GpL16-k0 (antibody, human IgG1, kappa, He Ab: anti-glypican-3 IgG1, alteration in one H chain only; also called He Ab) heavy 1: not shown heavy 2: not shown light: DIVMTQSPLSLPVTPGEPASISCQASESLVHSNRNTYLHWYLQKPGQSPQLLIYKVSNRFSGVPDRFSGSGSGTDFTLKISRVEAEDVGVYYCSQNTHVPPTFGQGTKVEIERTVAAPSVFIFPPSDEQLKSGTASVVCLLNNFYPREAKVQWKVDNALQSGNSQESVTEQDSKDSTYSLSSTLTLSKADYEKHKVYACEVTHQGLSSPVTKSFNRGEC | 0.6 | 251 % of control | 150 % of control
heterodimerized antibody GpH7-A5/GpH7-B3 variant S267_14T/GpL16-k0 (antibody, human IgG1, kappa, He Ab: anti-glypican-3 IgG1, alteration in one H chain only; also called He Ab) heavy 1: not shown heavy 2: not shown light: DIVMTQSPLSLPVTPGEPASISCQASESLVHSNRNTYLHWYLQKPGQSPQLLIYKVSNRFSGVPDRFSGSGSGTDFTLKISRVEAEDVGVYYCSQNTHVPPTFGQGTKVEIERTVAAPSVFIFPPSDEQLKSGTASVVCLLNNFYPREAKVQWKVDNALQSGNSQESVTEQDSKDSTYSLSSTLTLSKADYEKHKVYACEVTHQGLSSPVTKSFNRGEC | 0.78 | 104 % of control | 81.9 % of control
heterodimerized antibody GpH7-A5/GpH7-B3 variant S267_10E/GpL16-k0 (antibody, human IgG1, kappa, He Ab: anti-glypican-3 IgG1, alteration in one H chain only; also called He Ab) heavy 1: not shown heavy 2: not shown light: DIVMTQSPLSLPVTPGEPASISCQASESLVHSNRNTYLHWYLQKPGQSPQLLIYKVSNRFSGVPDRFSGSGSGTDFTLKISRVEAEDVGVYYCSQNTHVPPTFGQGTKVEIERTVAAPSVFIFPPSDEQLKSGTASVVCLLNNFYPREAKVQWKVDNALQSGNSQESVTEQDSKDSTYSLSSTLTLSKADYEKHKVYACEVTHQGLSSPVTKSFNRGEC | 0.46 | 379 % of control | 175 % of control
heterodimerized antibody GpH7-A5/GpH7-B3 variant S267_06M/GpL16-k0 (antibody, human IgG1, kappa, He Ab: anti-glypican-3 IgG1, alteration in one H chain only; also called He Ab) heavy 1: not shown heavy 2: not shown light: DIVMTQSPLSLPVTPGEPASISCQASESLVHSNRNTYLHWYLQKPGQSPQLLIYKVSNRFSGVPDRFSGSGSGTDFTLKISRVEAEDVGVYYCSQNTHVPPTFGQGTKVEIERTVAAPSVFIFPPSDEQLKSGTASVVCLLNNFYPREAKVQWKVDNALQSGNSQESVTEQDSKDSTYSLSSTLTLSKADYEKHKVYACEVTHQGLSSPVTKSFNRGEC | 0.58 | 210 % of control | 122 % of control
heterodimerized antibody GpH7-A5/GpH7-B3 variant S239_09D/GpL16-k0 (antibody, human IgG1, kappa, He Ab: anti-glypican-3 IgG1, alteration in one H chain only; also called He Ab) heavy 1: not shown heavy 2: not shown light: DIVMTQSPLSLPVTPGEPASISCQASESLVHSNRNTYLHWYLQKPGQSPQLLIYKVSNRFSGVPDRFSGSGSGTDFTLKISRVEAEDVGVYYCSQNTHVPPTFGQGTKVEIERTVAAPSVFIFPPSDEQLKSGTASVVCLLNNFYPREAKVQWKVDNALQSGNSQESVTEQDSKDSTYSLSSTLTLSKADYEKHKVYACEVTHQGLSSPVTKSFNRGEC | 0.66 | 206 % of control | 137 % of control
heterodimerized antibody GpH7-A5/GpH7-B3 variant S267_09D/GpL16-k0 (antibody, human IgG1, kappa, He Ab: anti-glypican-3 IgG1, alteration in one H chain only; also called He Ab) heavy 1: not shown heavy 2: not shown light: DIVMTQSPLSLPVTPGEPASISCQASESLVHSNRNTYLHWYLQKPGQSPQLLIYKVSNRFSGVPDRFSGSGSGTDFTLKISRVEAEDVGVYYCSQNTHVPPTFGQGTKVEIERTVAAPSVFIFPPSDEQLKSGTASVVCLLNNFYPREAKVQWKVDNALQSGNSQESVTEQDSKDSTYSLSSTLTLSKADYEKHKVYACEVTHQGLSSPVTKSFNRGEC | 0.56 | 310 % of control | 173 % of control
heterodimerized antibody GpH7-A5/GpH7-B3 variant S267_19Q/GpL16-k0 (antibody, human IgG1, kappa, He Ab: anti-glypican-3 IgG1, alteration in one H chain only; also called He Ab) heavy 1: not shown heavy 2: not shown light: DIVMTQSPLSLPVTPGEPASISCQASESLVHSNRNTYLHWYLQKPGQSPQLLIYKVSNRFSGVPDRFSGSGSGTDFTLKISRVEAEDVGVYYCSQNTHVPPTFGQGTKVEIERTVAAPSVFIFPPSDEQLKSGTASVVCLLNNFYPREAKVQWKVDNALQSGNSQESVTEQDSKDSTYSLSSTLTLSKADYEKHKVYACEVTHQGLSSPVTKSFNRGEC | 0.62 | 218 % of control | 135 % of control
heterodimerized antibody GpH7-A5/GpH7-B3 variant S267_16H/GpL16-k0 (antibody, human IgG1, kappa, He Ab: anti-glypican-3 IgG1, alteration in one H chain only; also called He Ab) heavy 1: not shown heavy 2: not shown light: DIVMTQSPLSLPVTPGEPASISCQASESLVHSNRNTYLHWYLQKPGQSPQLLIYKVSNRFSGVPDRFSGSGSGTDFTLKISRVEAEDVGVYYCSQNTHVPPTFGQGTKVEIERTVAAPSVFIFPPSDEQLKSGTASVVCLLNNFYPREAKVQWKVDNALQSGNSQESVTEQDSKDSTYSLSSTLTLSKADYEKHKVYACEVTHQGLSSPVTKSFNRGEC | 0.77 | 65.9 % of control | 50.6 % of control
heterodimerized antibody GpH7-A5/GpH7-B3 variant S267_03V/GpL16-k0 (antibody, human IgG1, kappa, He Ab: anti-glypican-3 IgG1, alteration in one H chain only; also called He Ab) heavy 1: not shown heavy 2: not shown light: DIVMTQSPLSLPVTPGEPASISCQASESLVHSNRNTYLHWYLQKPGQSPQLLIYKVSNRFSGVPDRFSGSGSGTDFTLKISRVEAEDVGVYYCSQNTHVPPTFGQGTKVEIERTVAAPSVFIFPPSDEQLKSGTASVVCLLNNFYPREAKVQWKVDNALQSGNSQESVTEQDSKDSTYSLSSTLTLSKADYEKHKVYACEVTHQGLSSPVTKSFNRGEC | 0.61 | 192 % of control | 116 % of control
heterodimerized antibody GpH7-A5/GpH7-B3 variant S267_04F/GpL16-k0 (antibody, human IgG1, kappa, He Ab: anti-glypican-3 IgG1, alteration in one H chain only; also called He Ab) heavy 1: not shown heavy 2: not shown light: DIVMTQSPLSLPVTPGEPASISCQASESLVHSNRNTYLHWYLQKPGQSPQLLIYKVSNRFSGVPDRFSGSGSGTDFTLKISRVEAEDVGVYYCSQNTHVPPTFGQGTKVEIERTVAAPSVFIFPPSDEQLKSGTASVVCLLNNFYPREAKVQWKVDNALQSGNSQESVTEQDSKDSTYSLSSTLTLSKADYEKHKVYACEVTHQGLSSPVTKSFNRGEC | 0.79 | 48 % of control | 37.8 % of control
